Tests used:
Human Insulin Receptor A = biological target: T1, Human Insulin Receptor A (Homo sapiens, UniProt P06213); experiment: Insulin receptor binding assay (on solubilised insulin receptor), SPA; details: SPA competition with [125I]A14Tyr-labelled insulin, solubilized human IR-A
T1 construct: solubilized human IR (holoreceptor); made in house; host or cells: baby hamster kidney (BHK) cells stably transfected with pZem vector containing the human IR-A insert
Method: (2008), Biochemistry, 47, 4743-4751). Competition binding experiments were performed in 96-well plates (polystyrene Optiplate-96, PerkinElmer) on an Eppendorf epMotion 5075 robot using solubilized human IR (holoreceptor) semipurified by wheat germ agglutinin purification from baby hamster kidney (BHK) cells, which were stably transfected with the pZem vector containing the human IR-A or IR-B insert. […] A reagent mix consisting of SPA beads (SPA PVT Antibody-Binding Beads, Anti-Mouse Reagent Cat. No. […] (2008), Biochemistry, 47, 4743-4751). Competition binding experiments were performed in 96-well plates (polystyrene OPTIPLATE-96TM, PerkinElmer) on an Eppendorf EPMOTION® 5075 robot using solubilized human IR (holoreceptor) semipurified by wheat germ agglutinin purification from baby hamster kidney (BHK) cells, which were stably transfected with the pZem vector containing the human IR-A or IR-B insert. […] A reagent mix consisting of SPA beads (SPA PVT Antibody-Binding Beads, Anti-Mouse Reagent Cat. No.

[1] = Hydrophobicity by isocratic reverse phase HPLC (k'rel); format: physicochemical; details: hydrophobicity relative to human insulin (k'rel HI = 1); isocratic RP-HPLC, pH 7.3
Method: The hydrophobicity, k′rel, is calculated as: k′relderiv=((tderiv−t0)/(trel−t0))*k′relref. Using HI as reference: k′relref=k′relHI=1. The void time of the HPLC system, t0, is determined by injecting 5 μl of 0.1 mM NaNO3. Running conditions:
Column: Lichrosorb RP-C18, 5 μm, 4×250 mm
Buffer A: 0.1 M natrium phosphate pH 7.3, 10 vol % CH3CN
After running an initial gradient, the isocratic level for running the analogue and reference (for example HI) is chosen, and the elution times of the analogue and reference under isocratic conditions are used in the above equation to calculate k′relderiv.

[2] = Thioflavin T (ThT) fibrillation assay; format: physicochemical; details: mean of four samples with standard deviation, 37° C., 960 rpm
Text: General Procedure for Thioflavin T (ThT) Fibrillation Assay:
This has traditionally been measured by visual inspection of the sample. However, that kind of measurement is very subjective and depending on the observer. Therefore the application of a small molecule indicator probe is much preferred. […] The time course for fibril formation can be described by a sigmoidal curve with the following expression (Nielsen at al. Biochemistry 40, 6036-6046, 2001):
Here, F is the ThT fluorescence at the time t. The constant t0 is the time needed to reach 50% of maximum fluorescence.
Samples were prepared freshly before each assay. […] Thioflavin T was added to the samples from a stock solution in water to a final concentration of 1 μM. Sample aliquots of 200 μl were placed in a 96 well microtiter plate (Packard Optiplate™-96, white polystyrene). Usually four replica of each sample (corresponding to one test condition) were placed in one column of wells. The plate was sealed with Scotch Pad (Qiagen).
The temperature was adjusted to 37° C. […] Fluorescence measurements were done using excitation through a 444 nm filter and measurement of emission through a 485 nm filter.
Each run was initiated by incubating the plate at the assay temperature for 10 min. The plate was measured every 20 minutes for typically 45 hours. Between each measurement, the plate was shaken and heated as described above.
The data points are typically a mean of four samples. Only data obtained in the same experiment (i.e. samples on the same plate) are presented in the same graph ensuring a relative measure of fibrillation between the individual samples of one assay rather then comparison between different assays.
The data set may be fitted to Eq. (1).

Primary rat adipocytes = experiment: Lipogenesis in rat adipocytes; format: cell-based; details: 3H-glucose conversion into extractable lipids; relative potency compared to human insulin
Text: As a measure of in vitro potency of the insulins of the invention, lipogenesis can be used.
The labelled glucose is converted into extractable lipids in a dose dependent way, resulting in full dose response curves.

T1 sequence (P06213 28-746 isoform P06213-2 limits assumed): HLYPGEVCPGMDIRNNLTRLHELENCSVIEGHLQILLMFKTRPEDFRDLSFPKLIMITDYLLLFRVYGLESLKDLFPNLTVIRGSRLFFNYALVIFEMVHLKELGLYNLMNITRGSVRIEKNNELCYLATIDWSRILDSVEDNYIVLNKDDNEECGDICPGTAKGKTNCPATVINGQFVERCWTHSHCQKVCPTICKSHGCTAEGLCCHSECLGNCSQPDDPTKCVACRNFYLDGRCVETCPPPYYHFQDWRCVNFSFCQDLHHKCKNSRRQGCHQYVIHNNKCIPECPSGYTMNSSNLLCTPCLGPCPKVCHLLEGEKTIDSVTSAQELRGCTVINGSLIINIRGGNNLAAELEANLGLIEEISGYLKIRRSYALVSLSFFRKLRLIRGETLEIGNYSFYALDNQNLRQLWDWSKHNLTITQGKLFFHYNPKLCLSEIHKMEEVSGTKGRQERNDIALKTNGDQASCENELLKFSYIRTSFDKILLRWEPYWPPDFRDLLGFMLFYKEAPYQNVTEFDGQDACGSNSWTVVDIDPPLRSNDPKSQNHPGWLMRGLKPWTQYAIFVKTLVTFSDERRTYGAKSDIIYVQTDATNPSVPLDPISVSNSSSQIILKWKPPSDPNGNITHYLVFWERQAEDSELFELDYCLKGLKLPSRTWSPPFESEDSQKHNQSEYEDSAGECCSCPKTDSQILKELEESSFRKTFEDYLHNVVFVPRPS
T1 sequence (P06213 763-1382 partner limits assumed): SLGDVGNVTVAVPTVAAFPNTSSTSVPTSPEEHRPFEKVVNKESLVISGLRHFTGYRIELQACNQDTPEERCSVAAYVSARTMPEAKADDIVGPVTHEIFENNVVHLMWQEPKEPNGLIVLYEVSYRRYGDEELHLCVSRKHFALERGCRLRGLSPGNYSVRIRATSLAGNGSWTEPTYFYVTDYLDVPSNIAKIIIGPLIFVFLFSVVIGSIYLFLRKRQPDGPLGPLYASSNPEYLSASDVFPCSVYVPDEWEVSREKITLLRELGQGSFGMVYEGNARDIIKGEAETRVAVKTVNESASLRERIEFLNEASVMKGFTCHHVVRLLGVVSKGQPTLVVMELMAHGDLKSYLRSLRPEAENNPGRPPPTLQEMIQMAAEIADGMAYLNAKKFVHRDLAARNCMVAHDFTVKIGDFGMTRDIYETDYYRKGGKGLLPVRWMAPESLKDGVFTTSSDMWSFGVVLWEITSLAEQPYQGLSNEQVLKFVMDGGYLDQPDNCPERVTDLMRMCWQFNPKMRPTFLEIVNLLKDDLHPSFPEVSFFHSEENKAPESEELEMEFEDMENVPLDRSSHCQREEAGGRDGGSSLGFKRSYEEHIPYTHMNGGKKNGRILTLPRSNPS

## A10C, A21G, B3C, desB27, B28E, desB30 human insulin [Example 23]
Human Insulin Receptor A
  Relative Affinity to Human Insulin Receptor A (% HI): 20.0 % HI

## A10C, A21G, B2C, B3E, B28E, desB30 human insulin [Example 17]
Human Insulin Receptor A
  Relative Affinity to Human Insulin Receptor A (% HI): 80.0 % HI

## A10C, A22K, B3C, desB27, desB30 human insulin [Example 28]
[1]
  k′-rel (human insulin): 0.0810
[2]; 0 h
  ThT fluorescence, 0 h: 35.8 ± 0.9
[2]; 2 h
  ThT fluorescence, 2 h: 29.4 ± 1
[2]; 20 h
  ThT fluorescence, 20 h: 27.6 ± 0.8
[2]; 45 h
  ThT fluorescence, 45 h: 25 ± 0.7
Primary rat adipocytes
  Lipogenesis (potency rel to HI): 25.3%

## A21C, B10E, B26C, desB30 human insulin [Example 78]
Human Insulin Receptor A
  Relative Affinity to Human Insulin Receptor A (% HI): 10.0 % HI

Source: US8815798B2, “Insulin analogues containing additional disulfide bonds” (priority 2010, dated 2014)
